In test [1] the target is T1, VLP-hCLDN6 (human) (UniProt P56747).
T1 sequence: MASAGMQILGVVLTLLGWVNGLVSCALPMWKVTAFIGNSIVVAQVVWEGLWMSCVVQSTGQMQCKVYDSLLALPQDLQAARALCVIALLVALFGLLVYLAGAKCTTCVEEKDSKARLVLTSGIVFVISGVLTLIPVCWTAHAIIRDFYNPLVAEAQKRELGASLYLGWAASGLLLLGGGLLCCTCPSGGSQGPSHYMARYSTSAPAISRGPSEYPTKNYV
The test can be described thus: ELISA, coated VLP-hCLDN6, 10 ul antibody sample (second well), HRP-Protein A. For orientation: An ELISA detects its analyte on a solid surface through an enzyme-linked reagent.

In test [2] the target is T1, VLP-hCLDN6 (human). The test can be described thus: ELISA, coated VLP-hCLDN6, 100 ul antibody sample, HRP-Protein A.
The target of test [3] is T1, VLP-hCLDN6 (human). The test can be described thus: ELISA, coated VLP-hCLDN6, 10 ul antibody sample, HRP-Protein A.
For test [4], the target named is T1, VLP-hCLDN6 (human). The test can be described thus: ELISA, coated VLP-hCLDN6, 100 ul antibody sample (second well), HRP-Protein A.
Test [5] concerns the target T2, VLP-hCLDN6 (human, UniProt P56747 1-220).
T2 construct: also called VLP-CLDN6; AT-003-ag1
T2 sequence: T1 sequence
Nature of the test: ELISA on coated VLP-hCLDN6.

Test [6] has as its target T2, VLP-hCLDN6. Nature of the test: ELISA, VLP-CLDN6 coated 400 ng/well, 4-fold serial dilution, HRP goat anti-human IgG Fc.

Numbering of substitutions follows the chain as printed. In names and notes the source's numbering stands.

B1: humanized antibody hAb-22 (antibody, V domains shown)
VH: EVKLVESGGGLVKPGGSLRLSCAASGFTFNSYTMSWVRQTPAKRLEWVVTISSGGGRTYYPDSVKGRFTISRDNARNTLYLQMSSLRAEDTAVYYCIRGDYRYDGFAYWGQGTLVTVSS
VL: DIQMTQSPSSLSASVGDRVTITCRASENIDSYLAWYQQKPGKSPQLLVYASTLLQDGVPSRFSGSRSGTDFTLTISSLQPEDVATYYCQHYYSIPYTFGSGTKLEIK
Take B1: the OD450 with VLP-hCLDN6 (human) [1] came to 0.96; with VLP-hCLDN6 (human) [2], 1.63; with VLP-hCLDN6 (human) [3], 1.12; in the test with VLP-hCLDN6 (human) [4] it was 1.65.

B2: humanized antibody hAb-25 (antibody, V domains shown)
VH: B1 VH
VL: B1 VL with Q55V, D70Q, T72S, T85R
For the molecule B2, the OD450 with VLP-hCLDN6 (human) [1] turned out to be 1.7; with VLP-hCLDN6 (human) [2], 2.05; with VLP-hCLDN6 (human) [3], 1.69; with VLP-hCLDN6 (human) [4], 2.24.

B3: humanized antibody hAb-24 (antibody, V domains shown)
VH: B1 VH
VL: B1 VL with D70Q, V83F
With B3, the OD450 in the test with VLP-hCLDN6 (human) [1] came to 1.34; in the test with VLP-hCLDN6 (human) [2] it was 1.94; with VLP-hCLDN6 (human) [3], 1.45; with VLP-hCLDN6 (human) [4], 1.87.

B4: murine/human chimeric antibody cAb-1 (antibody, V domains shown)
VH: B1 VH with R19K, A88S, V93M, S119T
VL: DIQMTQSPASLSASVGETVTITCRASENIDSYLAWYQQKQGKSPQLLVYASTLLVDGVPSRFSGSRSGTQFSLKINSLQSEDVARYYCQHYYSIPYTFGSGTKLEIK
notes: also called VH0/VL0
In general, EC50 refers to the concentration giving half of the maximal effect. A low value points to higher potency in that assay. For the molecule B4, the half-maximal effective concentration (EC50) in the test with VLP-hCLDN6 [5] and in the test with VLP-hCLDN6 [6] was 0.59 nM throughout.

B5: humanized antibody hAb-23 (antibody, V domains shown)
VH: B1 VH
VL: B1 VL with D70Q, T85R
Regarding B5, the OD450 in the test with VLP-hCLDN6 (human) [1] came to 1.46; with VLP-hCLDN6 (human) [2], 1.82; in the test with VLP-hCLDN6 (human) [3] it was 1.42; in the test with VLP-hCLDN6 (human) [4], 2.05.

B6: murine/human chimeric antibody cAb-2 (antibody, V domains shown)
VH: B1 VH with R19K, S31E, A88S, V93M, S119T
VL: B4 VL
notes: also called cAb-1 with S31E
Molecule B6 registered a 50% effective concentration (EC50) in the test with VLP-hCLDN6 [6] of 0.52 nM.

B7: humanized antibody hAb-29 (antibody, V domains shown)
VH: B1 VH with S31D, R76K
VL: B1 VL with Q55V, D70Q, T72S, T85R
notes: also called VH2VL4 with HC S31D
Molecule B7 came in with a half-maximal effective concentration (EC50) in the test with VLP-hCLDN6 [5] of 0.29 nM.

B8: murine/human chimeric antibody cAb-18 (antibody, V domains shown)
VH: B1 VH with R19K, A88S, V93M, G105K, S119T
VL: B4 VL
notes: also called cAb-1 with G100K
As for B8, the half-maximal effective concentration (EC50) with VLP-hCLDN6 [6] turned out to be 0.58 nM.

B9: humanized antibody hAb-48 (antibody, V domains shown)
VH: B1 VH with K3Q, S31D, T40A, A42G, R76K, G105A
VL: B1 VL with Q55V, D70Q, T72S, T85R
notes: also called VH7VL4
For the molecule B9, a half-maximal response in the test with VLP-hCLDN6 [5] (EC50) required 0.13 nM.

B10: humanized antibody hAb-34 (antibody, V domains shown)
VH: B1 VH with S31D, R76K, G105A
VL: B1 VL with Q55V, D70Q, T72S, T85R
notes: also called VH2VL4 with HC S31D/G100A
B10 had an EC50 with VLP-hCLDN6 [5] of 0.89 nM.

B11: murine/human chimeric antibody cAb-3 (antibody, V domains shown)
VH: B1 VH with R19K, S31D, A88S, V93M, S119T
VL: B4 VL
notes: also called cAb-1 with S31D
Turning to B11, a half-maximal effect with VLP-hCLDN6 [6] (EC50) was put at 0.26 nM.

B12: humanized antibody hAb-46 (antibody, V domains shown)
VH: B1 VH with K3Q, S31D, T40A, A42G, R76K, T78S, S84N, G105A
VL: B1 VL
notes: also called VH8VL5
B12: it took 6.55 nM to reach a half-maximal effect in the test with VLP-hCLDN6 [5] (EC50).

B13: humanized antibody hAb-28 (antibody, V domains shown)
VH: B1 VH with S31Q, R76K
VL: B1 VL with Q55V, D70Q, T72S, T85R
notes: also called VH2VL4 with HC S31Q
Regarding B13, the concentration for a half-maximal effect (EC50) with VLP-hCLDN6 [5] was 0.19 nM.

B14: humanized antibody hAb-26 (antibody, V domains shown)
VH: B1 VH with S31Y, R76K
VL: B1 VL with Q55V, D70Q, T72S, T85R
notes: also called VH2VL4 with HC S31Y
In the test with VLP-hCLDN6 [5], B14 returned an EC50 of 0.1 nM.

B15: humanized antibody hAb-30 (antibody, V domains shown)
VH: B1 VH with S31E, R76K
VL: B1 VL with Q55V, D70Q, T72S, T85R
notes: also called VH2VL4 with HC S31E
In the test with VLP-hCLDN6 [5], B15 came in with a concentration giving a half-maximal response (EC50) of 0.29 nM.

B16: humanized antibody hAb-33 (antibody, V domains shown)
VH: B1 VH with R76K, G105A
VL: B1 VL with Q55V, D70Q, T72S, T85R
notes: also called VH2VL4 with HC G100A
In the test with VLP-hCLDN6 [5], B16 registered a 50% effective concentration (EC50) of 0.31 nM.

B17: humanized antibody hAb-44 (antibody, V domains shown)
VH: B1 VH with S31D, T40A, A42G, R76K, T78S, S84N, G105A
VL: B1 VL
notes: also called VH6VL5
B17 came in with an EC50 with VLP-hCLDN6 [5] of 6.67 nM.

B18: humanized antibody hAb-27 (antibody, V domains shown)
VH: B1 VH with S31M, R76K
VL: B1 VL with Q55V, D70Q, T72S, T85R
notes: also called VH2VL4 with HC S31M
In the test with VLP-hCLDN6 [5], B18 came in with a concentration for a half-maximal effect (EC50) of 0.12 nM.

B19: humanized antibody hAb-45 (antibody, V domains shown)
VH: B1 VH with K3Q, S31D, T40A, A42G, R76K, G105A
VL: B1 VL
notes: also called VH7VL5
B19 displayed an EC50 with VLP-hCLDN6 [5] of 4.84 nM.

B20: humanized antibody hAb-49 (antibody, V domains shown)
VH: B1 VH with K3Q, S31D, T40A, A42G, R76K, T78S, S84N, G105A
VL: B1 VL with Q55V, D70Q, T72S, T85R
notes: also called VH8VL4
In turn, B20 yielded a concentration giving a half-maximal response (EC50) in the test with VLP-hCLDN6 [5] of 0.07 nM.

B21: humanized antibody hAb-47 (antibody, V domains shown)
VH: B1 VH with S31D, T40A, A42G, R76K, T78S, S84N, G105A
VL: B1 VL with Q55V, D70Q, T72S, T85R
notes: also called VH6VL4
With B21, the midpoint of the response with VLP-hCLDN6 [5], the EC50, lay at 0.11 nM.

These data come from patent EP4707304A1 (Axcynsis Therapeutics Pte. Ltd., dated 2024).
